How the values were obtained:
[1] = biological target: T1, recombinant biotinylated single-chain HLA-A2/pp65 495-503 complex (human; cytomegalovirus (CMV))
[2] = biological target: T1, recombinant biotinylated single-chain …; assay: SPR, Biacore 2000; biotinylated HLA-A2/pp65 on streptavidin chip

Binder	Kd [1]	koff [2]	kon [2]
H9 Fab (soluble recombinant Fab, monomer) (Fab, V domains shown, also called Fab H9; H9 Fab monomer) VH: EVQLVQSGAEVKKPGSSVKVSCKASGGTFSSYAISWVRQAPGQGLEWMGGIIPIFGTANYAQKFQGRVTITADESTSTAYMELSSLRSEDTAVYYCARGDLYYYDSSGYPRYYFDYWGQGTLVTVSS VL: ETTLTQSPGTLSLSPGERATLSCRASQSVSSSYLAWYQQKPGQAPRLVIYGASSRATGIPDRFSGSGSGTDFTLTISRLEPEDFAVYYCQHYSTSPGFTFGQGTKLEIRR	8 nM	0.000879 s⁻¹	105000 M⁻¹ s⁻¹
H9 whole IgG antibody (H9 Fab-derived IgG1, kappa) (antibody, V domains shown, also called H9 IgG; H9 IgG Ab) VH: EVQLVQSGAEVKKPGSSVKVSCKASGGTFSSYAISWVRQAPGQGLEWMGGIIPIFGTANYAQKFQGRVTITADESTSTAYMELSSLRSEDTAVYYCARGDLYYYDSSGYPRYYFDYWGQGTLVTVSS VL: ETTLTQSPGTLSLSPGERATLSCRASQSVSSSYLAWYQQKPGQAPRLVIYGASSRATGIPDRFSGSGSGTDFTLTISRLEPEDFAVYYCQHYSTSPGFTFGQGTKLEIRR	5 nM	0.00352 s⁻¹	599000 M⁻¹ s⁻¹

Source: patent US20100111957A1 (TECHNION RESEARCH AND DEVELOPMENT FOUNDATION, published 2010)
